# Measurements taken from the supplement of paper PMC7125110.
# ± gives the standard error. Variants at the floor of the assay were thinned out.
# B1: glmS ribozyme (parent)
# chain: AUAAAAGCGCCAGAACUACAGAAAUGUAGUUGACGAGGAGGAGGUUUAUCGAAUUUUCGGCGGAUGCCUCCAAA
# Columns and labels:
# Conditions in all cases: with glucosamine-6-phosphate
# glucosamine-6-phosphate [1] = variants of: B1; assay: self-cleavage kobs at 160 uM GlcN6P; higher = faster cleavage; RNA array
# Method in brief: (§1)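 kobs was derived by fitting per-tile medians to one- or two-exponential decays after normalising signals to baseline and to non-cleaving reference variants. Those signals came from barcoded ribozyme variants transcribed in situ by E. coli RNA polymerase on sequenced MiSeq chips, followed through a hybridised Cy3 probe at 37 °C and imaged over ~14 h. Glucosamine-6-phosphate (40 μM to 10 mM) in HEPES/KCl/Mg(OAc)2 buffer was flowed in. Weighted Michaelis–Menten fits across concentrations then gave kcat and KM.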
# glucosamine-6-phosphate [2] = variants of: B1; assay: self-cleavage kobs at 640 uM GlcN6P; higher = faster cleavage; RNA array
# Method in brief: as §1
# glucosamine-6-phosphate [3] = variants of: B1; assay: self-cleavage kobs at 2500 uM GlcN6P; higher = faster cleavage; RNA array
# Method in brief: as §1
# glucosamine-6-phosphate [4] = variants of: B1; assay: self-cleavage kobs at 10000 uM GlcN6P; higher = faster cleavage; RNA array
# Method in brief: as §1
Variant,self-cleavage kobs at 160 uM GlcN6P (glucosamine-6-phosphate [1]) [s⁻¹],self-cleavage kobs at 640 uM GlcN6P (glucosamine-6-phosphate [2]) [s⁻¹],self-cleavage kobs at 2500 uM GlcN6P (glucosamine-6-phosphate [3]) [s⁻¹],self-cleavage kobs at 10000 uM GlcN6P (glucosamine-6-phosphate [4]) [s⁻¹]
C8A U57C,< 1e-05,< 1e-05,< 1e-05,
C11A G38U G40U,< 1e-05,,,
G44U C58U,< 1e-05,< 1e-05,< 1e-05,< 1e-05
C8A G35C C61G,< 1e-05,< 1e-05,< 1e-05,
C11U U65C,< 1e-05,,,
C34G A53G C68G,0.000101 ± 2.4e-05,0.000115 ± 2.5e-05,8.44e-05 ± 3.6e-05,
A48C U69A,< 1e-05,< 1e-05,,
A39C U69A,< 1e-05,< 1e-05,,
G29U A42U A52U C67G,< 1e-05,< 1e-05,,
G9C U56A,< 1e-05,< 1e-05,< 1e-05,
G44C U54A C68U,< 1e-05,,,
C10G A36C,< 1e-05,< 1e-05,< 1e-05,
C10G U57C,< 1e-05,< 1e-05,< 1e-05,< 1e-05
A14G A53C,0.00202 ± 0.00065,0.00488 ± 0.0012,0.01 ± 0.0023,0.0384 ± 0.016
U57G C58G A64G,6.2e-05 ± 2.9e-05,8.58e-05 ± 3.5e-05,4.48e-05 ± 1.9e-05,
A12C C16U A53G U65G,9.62e-05 ± 2.4e-05,0.000453 ± 9.1e-05,0.000899 ± 0.00019,
A6C G66U,< 1e-05,< 1e-05,< 1e-05,
C8G C16A G35U,< 1e-05,,< 1e-05,
A12U C34U,< 1e-05,< 1e-05,,< 1e-05
C10G A39U,< 1e-05,< 1e-05,,
G35A U56G A64G,< 1e-05,,< 1e-05,< 1e-05
A52C A64C,< 1e-05,< 1e-05,,< 1e-05
A33G G40C G63U,< 1e-05,< 1e-05,< 1e-05,
A53G G63U,< 1e-05,< 1e-05,< 1e-05,
